Experimental data as given in article PMC5087487, “A Graphene Oxide-Based Fluorescent Method for the Detection of Human Chorionic Gonadotropin” (Sensors (Basel, Switzerland), 2016).
Ends that are not written are not given here. * marks the point of attachment. FITC = O=C1OC2(c3ccc(O)cc3Oc3cc(O)ccc32)c2ccc(NC(=S)*)cc21

Biological target: T1, Human chorionic gonadotropin (human, UniProt P01215 25-116; P0DN86 21-165)
T1 construct: glycoprotein hormones alpha chain of human chorionic gonadotropin; beta subunit of human chorionic gonadotropin; Glycoprotein hormone; also called hCG; source: bought: Sigma-Aldrich
T1 sequence (P01215 25-116, chain 1 of 2, other chains not shown): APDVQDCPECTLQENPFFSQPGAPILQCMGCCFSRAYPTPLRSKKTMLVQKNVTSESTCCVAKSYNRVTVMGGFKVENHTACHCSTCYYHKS
Experiment: other fluorescence titration; 50 nM FITC-peptide first adsorbed on graphene oxide (2 ug/mL, 10 min, fluorescence quenched); protein added, 15 min at room temperature, PBS 20 mM pH 7.2; recovery of fluorescence (excitation 470 nm, emission 518 nm) on release of the peptide from GO
Details: both partners purified

B1: FITC-labeled hCG-specific binding peptide aptamer FITC-PPLRINRHILTR (peptide)
peptide: {FITC}-PPLRINRHILTR
notes: In the assay the peptide was first adsorbed onto graphene oxide (GO); also called peptide probe; source: synthetic peptide; bought: Synpeptide Co., Ltd
- binding result: binds
